Three molecules from PMC9478400, “Identification and characterization of a novel hydroxylamine oxidase, DnfA, that catalyzes the oxidation of hydroxylamine to N2” (The Journal of Biological Chemistry, 2022) can be followed below.

Series [1] has as its target DnfA hydroxylamine oxidase of Alcaligenes ammonioxydans HO-1 (Alcaligenes ammonioxydans HO-1). The series can be described thus: SEC; gel filtration of native DnfA on Superdex 200 Increase 10/300 GL; mobile phase 20 mM Tris-HCl, 150 mM NaCl, pH 8.0; UV absorbance at 280 nm.
Series [2] addresses T1, DnfA (Alcaligenes ammonioxydans, UniProt A0ABX8SXK4).
T1 construct: gene FE795_13025; full-length, 6xHis-tagged, pET-21a, E. coli BL21(DE3); dimer by gel filtration; diiron (residues Glu88, Glu123, His126, Glu182, His209, Glu213, His216)
T1 sequence (A0ABX8SXK4 1-317): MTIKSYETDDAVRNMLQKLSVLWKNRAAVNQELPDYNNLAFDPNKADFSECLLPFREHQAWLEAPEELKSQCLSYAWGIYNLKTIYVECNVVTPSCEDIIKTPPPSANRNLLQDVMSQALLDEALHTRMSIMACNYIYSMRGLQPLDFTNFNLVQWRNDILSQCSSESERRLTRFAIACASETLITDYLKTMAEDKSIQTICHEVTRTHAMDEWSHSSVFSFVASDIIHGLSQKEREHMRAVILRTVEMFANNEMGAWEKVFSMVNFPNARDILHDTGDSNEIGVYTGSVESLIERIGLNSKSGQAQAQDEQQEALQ
The series can be described thus: differential scanning fluorimetry. Type of series: binding. The following applies: 10 mM compound, 100 μg/ml DnfA, 20 mM Tris-HCl pH 8.0, SYPRO Orange.

Series [3] addresses T1, DnfA. The series can be described thus: isothermal titration calorimetry. In kind it is binding. The following applies: 25 °C; hydroxylamine injected into enzyme.
Substrate in series [4]: NO
Put plainly: Michaelis-Menten, nonlinear regression, N2-forming hydroxylamine oxidation. Type of series: biochemical, Alcaligenes ammonioxydans. The following applies: 10 μM DnfA, 100 μM FAD, 1 mM NADH, atmospheric O2, 15 to 400 μM NH2OH. The source says:
Michaelis-Menten, nonlinear regression, N2-forming hydroxylamine oxidation on DnfA | the Michaelis–Menten constant (Km) for hydroxylamine

The molecule “DnfA hydroxylamine oxidase of Alcaligenes ammonioxydans HO-1 (enzyme)” came in with a stoichiometry N in series [1] of 2.

Take `NO` [hydroxylamine]: on DnfA [2], the differential scanning fluorimetry result is given as “DSF test demonstrated also that DnfA bound hydroxylamine”. In addition, the isothermal titration calorimetry result on DnfA [3] was “none of them interacted with ammonia, but DnfA bound to hydroxylamine”.

B1: DnfA (Alcaligenes ammonioxydans) (protein)
chain: T1 sequence (A0ABX8SXK4 1-317)
notes: full-length, 6xHis-tagged, pET-21a, E. coli BL21(DE3); dimer by gel filtration; diiron (residues Glu88, Glu123, His126, Glu182, His209, Glu213, His216)
Turning to B1, in series [4], the Km was determined as 92.9 ± 3.0 µM and the kcat was 0.028 ± 0.001 s⁻¹.
